Like-named read-outs stand apart in the source and are kept apart here. Where no end group is shown, it is not given here.
Key:
[1] = molecular target: T1, human Nav1.7 (Homo sapiens, UniProt Q15858); assay: NaV 1.7 current measurement on IonFlux HT; type: cell-based; conditions: HEK293 cells overexpressing alpha and beta-1 subunits of human Nav1.7
T1 construct: host or cells: HEK293
Method: Toxin-550 peptides were assayed on the IonFlux HT using standard running conditions for measurement of NaV 1.7 current. Briefly, HEK293 cells overexpressing the alpha and beta-1 subunits of human Nav1.7 (PrecisION, Millipore) were trypsinized, brought up in serum-free media and allowed to shake at room temperature for 30 minutes. Compounds were diluted into standard extracellular Ringer's solution (ECS) at desired concentration. Cells were washed once with ECS and then brought up in ECS at a concentration of 4 million cells/mL. IonFlux HT plate was set up according to standard protocols.
NaV 1.7 current was measured on the IonFlux according to the following voltage step protocol:
1. The cells were held at −90 mV with a period of 10 seconds.
2. The cells were stepped from −90 mV to −120 mV for 100 ms. • a. then to −10 mV for 30 ms and • b. then back to −90 mV for 30 ms.
Baseline current was allowed to stabilize for 5 minutes, then a control baseline (ECS only) was established. Compound was applied for 20 minutes, and then a positive control (peptide NaV1.7 blocker) was applied.
Leak subtraction was then performed on the data and the resulting currents are analyzed as follows: • 1. […] For a given time (e.g. 10 minutes post-compound addition), percent block was calculated as I/Imax.

[2] = In vivo pharmacokinetic (PK) study for half-life extension; conditions: mouse, plasma, mice
Method: Lipid conjugated relaxin or other therapeutic agents are dosed in mice using sc, po, iv dosing. Plasma levels of TA are determined by ms, lgr7, glp1r and/or gcgr activation at different time points (e.g., i.v. PK 5 min, 0.5 h, 1 h, 2 h 4 h, 8 h, 24 h, 48 h, 96 h & 144 h and s.c. PK. 15 min, 0.5 h, 1 h, 2 h, 4 h, 8 h, 24 h, 48 h, 96 h and 144 h). Select PK data are shown in FIGS. 11, 12, and 15, and Table 2.

[3] = molecular target: T2, LGR7 (Homo sapiens, UniProt Q9HBX9); assay: LGR7 CRE-Luc reporter gene assay (relaxin bioactivity); type: cell-based; conditions: HEK293T cells expressing LGR7 and CRE-Luc; EC50 after non-linear curve fitting
T2 construct: expressed in transfected cells
T2 sequence (Q9HBX9 1-757): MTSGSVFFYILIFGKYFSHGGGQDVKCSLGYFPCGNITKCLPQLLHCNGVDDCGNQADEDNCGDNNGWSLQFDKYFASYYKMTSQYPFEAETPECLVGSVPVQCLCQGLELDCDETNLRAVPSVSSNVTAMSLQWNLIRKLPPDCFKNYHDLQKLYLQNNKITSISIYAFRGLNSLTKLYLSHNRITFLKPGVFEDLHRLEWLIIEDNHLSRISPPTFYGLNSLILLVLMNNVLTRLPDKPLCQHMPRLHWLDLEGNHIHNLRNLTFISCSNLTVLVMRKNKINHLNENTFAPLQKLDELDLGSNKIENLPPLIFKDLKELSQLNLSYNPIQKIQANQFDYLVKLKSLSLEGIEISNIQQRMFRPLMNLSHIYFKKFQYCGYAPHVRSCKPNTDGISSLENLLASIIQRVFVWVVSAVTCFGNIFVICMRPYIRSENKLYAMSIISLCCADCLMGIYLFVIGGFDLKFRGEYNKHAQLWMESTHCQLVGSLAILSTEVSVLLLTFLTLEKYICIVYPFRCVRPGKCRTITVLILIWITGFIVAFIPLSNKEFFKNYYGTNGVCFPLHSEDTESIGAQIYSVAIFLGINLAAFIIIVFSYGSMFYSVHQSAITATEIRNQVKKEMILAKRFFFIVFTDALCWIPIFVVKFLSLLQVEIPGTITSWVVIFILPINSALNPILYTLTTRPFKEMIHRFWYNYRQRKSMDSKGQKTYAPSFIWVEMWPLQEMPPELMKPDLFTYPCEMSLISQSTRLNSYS
Method: Relaxin 2 signals through leucine-rich repeat-containing GPCRs (i.e. LGR7 (RFXR1)). The bioactivity of wild-type relaxin peptides was determined based on the stimulation of adenylate cyclase activity in HEK293T cells stably expressing recombinant LGR7. Stable LGR7 expressing cells were maintained in Dulbecco's modified Eagle's medium/F-12 media supplemented with […] Zeocin (Invitrogen). A cyclic AMP responsive element driven luciferase (CRE-Luc) reporter line was generated by lentiviral transduction of these LGR7 expressing HEK293T cells with CRE-Luc lentivirus (Qiagen) and selected with puromycine (2 μg/mL) for two weeks. A reporter gene assay was used to detect cAMP levels and LGR7 activation by relaxin.
Assay detail: HEK293T cells expressing LGR7 and CRE-Luc are seeded at a density of 5×10^3 cells per well in 50 μl of Dulbecco's modified Eagle's medium/F-12 medium containing 10% FBS in 384-well solid bottom white plates. Cells are pre-incubated at 37° C. for overnight. Different concentrations of relaxin peptides (from 0.01 nM to 1000 nM) were added in triplicate, incubated for 18 hours and luciferase activity was detected by adding […] of Bright Glo (Promega). Luminescence was recorded on Envision (Perkin Elmer). EC50 is calculated after non-linear curve fitting (see FIG. 3 for relaxin H2 dose response curve).

[4] = iv, i.v., read-out: Half-life (hours) i.v. (converted)
[5] = sc, s.c., read-out: Half-life (hours) s.c. (converted)

T1 sequence (Q15858 whole entry): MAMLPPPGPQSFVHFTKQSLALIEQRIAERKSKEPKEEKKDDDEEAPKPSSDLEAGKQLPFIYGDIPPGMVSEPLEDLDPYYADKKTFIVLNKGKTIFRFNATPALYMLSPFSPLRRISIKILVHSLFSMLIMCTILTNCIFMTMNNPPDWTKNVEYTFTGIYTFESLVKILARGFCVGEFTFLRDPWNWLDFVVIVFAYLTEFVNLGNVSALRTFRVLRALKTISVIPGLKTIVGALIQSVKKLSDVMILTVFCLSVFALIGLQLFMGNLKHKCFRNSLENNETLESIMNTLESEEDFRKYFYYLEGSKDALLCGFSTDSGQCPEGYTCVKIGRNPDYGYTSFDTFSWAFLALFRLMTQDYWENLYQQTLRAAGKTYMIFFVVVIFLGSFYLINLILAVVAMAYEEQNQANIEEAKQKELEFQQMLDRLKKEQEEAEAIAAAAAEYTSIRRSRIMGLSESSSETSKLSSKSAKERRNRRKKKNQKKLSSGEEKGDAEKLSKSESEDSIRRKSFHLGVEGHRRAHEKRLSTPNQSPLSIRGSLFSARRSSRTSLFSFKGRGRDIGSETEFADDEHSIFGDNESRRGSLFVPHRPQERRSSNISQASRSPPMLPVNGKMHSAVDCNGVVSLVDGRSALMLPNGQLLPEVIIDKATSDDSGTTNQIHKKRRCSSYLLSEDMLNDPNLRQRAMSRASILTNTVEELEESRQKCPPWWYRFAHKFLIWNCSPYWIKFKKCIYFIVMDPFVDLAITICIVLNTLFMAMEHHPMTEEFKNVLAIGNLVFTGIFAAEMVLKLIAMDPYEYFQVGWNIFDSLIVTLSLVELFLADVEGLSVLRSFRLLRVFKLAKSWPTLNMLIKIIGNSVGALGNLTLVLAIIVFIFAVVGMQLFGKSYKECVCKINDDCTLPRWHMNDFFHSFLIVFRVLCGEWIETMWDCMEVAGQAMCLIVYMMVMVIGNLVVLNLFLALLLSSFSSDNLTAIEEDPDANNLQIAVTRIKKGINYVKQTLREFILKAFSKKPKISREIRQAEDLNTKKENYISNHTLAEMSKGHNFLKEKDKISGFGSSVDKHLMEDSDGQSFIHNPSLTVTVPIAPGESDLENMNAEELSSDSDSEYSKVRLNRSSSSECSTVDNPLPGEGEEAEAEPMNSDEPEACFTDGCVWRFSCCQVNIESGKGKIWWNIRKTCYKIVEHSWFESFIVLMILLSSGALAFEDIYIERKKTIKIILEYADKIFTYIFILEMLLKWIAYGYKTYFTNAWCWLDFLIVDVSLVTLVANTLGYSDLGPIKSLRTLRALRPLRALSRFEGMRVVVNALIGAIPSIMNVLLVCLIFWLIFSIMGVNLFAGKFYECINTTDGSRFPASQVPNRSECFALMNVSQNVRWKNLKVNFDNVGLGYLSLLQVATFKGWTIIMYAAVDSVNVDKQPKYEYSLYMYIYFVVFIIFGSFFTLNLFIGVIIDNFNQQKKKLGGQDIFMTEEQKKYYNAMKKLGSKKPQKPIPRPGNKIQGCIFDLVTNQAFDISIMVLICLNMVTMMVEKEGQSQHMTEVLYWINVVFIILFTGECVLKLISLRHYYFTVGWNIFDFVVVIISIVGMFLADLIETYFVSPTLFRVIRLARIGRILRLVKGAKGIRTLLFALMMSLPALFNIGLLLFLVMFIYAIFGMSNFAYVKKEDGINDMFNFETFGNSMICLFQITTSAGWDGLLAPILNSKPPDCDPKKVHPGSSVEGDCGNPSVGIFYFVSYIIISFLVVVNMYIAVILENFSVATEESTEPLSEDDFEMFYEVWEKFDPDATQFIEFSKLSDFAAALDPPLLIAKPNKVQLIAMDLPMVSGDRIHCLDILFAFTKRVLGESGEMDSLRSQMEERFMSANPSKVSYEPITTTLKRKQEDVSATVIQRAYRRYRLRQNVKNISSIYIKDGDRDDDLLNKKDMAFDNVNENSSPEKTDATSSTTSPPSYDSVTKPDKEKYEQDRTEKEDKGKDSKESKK
T1 sequence (Q07699 19-218, further chain): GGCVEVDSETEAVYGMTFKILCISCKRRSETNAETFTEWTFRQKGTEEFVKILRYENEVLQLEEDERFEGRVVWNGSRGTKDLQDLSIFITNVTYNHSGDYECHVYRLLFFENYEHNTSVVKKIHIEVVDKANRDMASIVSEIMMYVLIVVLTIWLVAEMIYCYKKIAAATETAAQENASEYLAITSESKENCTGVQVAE

For “550-: Toxin-550 peptide, probably SEQ ID NO: 30 (ECIGMFKSCDPENDKCCKGRTCSRKHRWCKYKL) [Entry 550-]”, the “Activity: % block at 100 nM” value [1] was 87% block.

For “550-4-GSCGG-FA1: 550-4-GSCGG (SEQ ID NO: 28) with lipid FA1 (GSCGGECIGMFKSCDPENDKCCKGRTCSRKHRWCKYKL; cysteine pairing not given here; also: lipid FA1)”, the “Activity: % block at 100 nM” value [1] was 85% block.

CC[C@H](C)[C@@H]1NC(=O)[C@H](C)NC(=O)[C@H]([C@@H](C)CC)NC(=O)[C@H](CCC(N)=O)NC(=O)[C@H](C)NC(=O)[C@H](CCCNC(=N)N)NC(=O)[C@H](C(C)C)NC(=O)[C@H](CC(C)C)NC(=O)[C@H](CCC(=O)O)NC(=O)[C@H](CCCNC(=N)N)NC(=O)CNC(=O)[C@@H](NC(=O)[C@H](CC(C)C)NC(=O)[C@H](CCCCN)NC(=O)[C@@H](NC(=O)[C@@H](NC(=O)[C@H](CCC(=O)O)NC(=O)[C@H](CCC(=O)O)NC(=O)[C@H](CCSC)NC(=O)[C@H](Cc2c[nH]c3ccccc23)NC(=O)[C@H](CO)NC(=O)[C@H](C)N)C(C)C)[C@@H](C)CC)CSSC[C@@H]2NC(=O)[C@@H](NC(=O)[C@H](CCCCN)NC(=O)[C@H](CC(N)=O)NC(=O)[C@H](C)NC(=O)[C@H](CC(C)C)NC(=O)[C@H](C)NC(=O)[C@H](CO)NC(=O)[C@H](Cc3ccc(O)cc3)NC(=O)[C@H](CC(C)C)NC(=O)[C@@H](N)CSCC(=O)NCCOCCOCCC(=O)NCCOCCOCCC(=O)NCCCC[C@H](NC(=O)CCCCCCCCCCCCCCCCC(=O)O)C(=O)O)CSSC[C@H](NC(=O)CNC(=O)[C@H](C(C)C)NC(=O)[C@H](Cc3c[nH]cn3)NC2=O)C(=O)N[C@@H]([C@@H](C)O)C(=O)N[C@@H](CCCCN)C(=O)N[C@@H](CCCNC(=N)N)C(=O)N[C@@H](CO)C(=O)N[C@@H](CC(C)C)C(=O)N[C@@H](C)C(=O)N[C@@H](CCCNC(=N)N)C(=O)N[C@@H](Cc2ccccc2)C(=O)N[C@H](C(=O)O)CSSC[C@@H](C(=O)NCC(=O)N[C@@H](CCSC)C(=O)N[C@@H](CO)C(=O)N[C@H](C(=O)N[C@@H](Cc2c[nH]c3ccccc23)C(=O)N[C@@H](CO)C(=O)O)[C@@H](C)O)NC1=O [Relaxin-B-D1A, A-Q1C-FA2] showed a half-life [2, 4] of 3.5 h and a half-life [2, 5] of 7.8 h.

CCCCCCCCCCCCCC(=O)NCCOCCOCCNC(=O)CSC[C@H](NC(=O)[C@H](Cc1c[nH]c2ccccc12)NC(=O)[C@@H](NC(=O)[C@H](CO)NC(=O)[C@H](CCSC)NC(=O)CNC(=O)[C@@H]1CSSC[C@@H](C(=O)O)NC(=O)[C@H](Cc2ccccc2)NC(=O)[C@H](CCCNC(=N)N)NC(=O)[C@H](C)NC(=O)[C@H](CC(C)C)NC(=O)[C@H](CO)NC(=O)[C@H](CCCNC(=N)N)NC(=O)[C@H](CCCCN)NC(=O)[C@H]([C@@H](C)O)NC(=O)[C@@H]2CSSC[C@H](NC(=O)[C@H](CCCCN)NC(=O)[C@H](CC(N)=O)NC(=O)[C@H](C)NC(=O)[C@H](CC(C)C)NC(=O)[C@H](C)NC(=O)[C@H](CO)NC(=O)[C@H](Cc3ccc(O)cc3)NC(=O)[C@H](CC(C)C)NC(=O)[C@@H](N)CCC(N)=O)C(=O)N[C@@H](CSSC[C@H](NC(=O)[C@H](CC(C)C)NC(=O)[C@H](CCCCN)NC(=O)[C@@H](NC(=O)[C@@H](NC(=O)[C@H](CCC(=O)O)NC(=O)[C@H](CCC(=O)O)NC(=O)[C@H](CCSC)NC(=O)[C@H](Cc3c[nH]c4ccccc34)NC(=O)[C@H](CO)NC(=O)[C@H](CC(=O)O)NC(=O)CNC(=O)CNC(=O)[C@H](CO)NC(=O)CNC(=O)[C@H](CCC(N)=O)NC(=O)[C@H](Cc3ccccc3)NC(=O)[C@H](Cc3ccc(O)cc3)NC(=O)[C@H](CC(C)C)NC(=O)[C@H](CC(N)=O)NC(=O)[C@H](CCC(=O)O)NC(=O)[C@H](Cc3c[nH]cn3)NC(=O)[C@H](Cc3c[nH]cn3)NC(=O)[C@H](Cc3c[nH]cn3)NC(=O)[C@H](Cc3c[nH]cn3)NC(=O)[C@H](Cc3c[nH]cn3)NC(=O)[C@H](Cc3c[nH]cn3)NC(=O)[C@H](Cc3c[nH]cn3)NC(=O)[C@@H](N)Cc3c[nH]cn3)C(C)C)[C@@H](C)CC)C(=O)NCC(=O)N[C@@H](CCCNC(=N)N)C(=O)N[C@@H](CCC(=O)O)C(=O)N[C@@H](CC(C)C)C(=O)N[C@@H](C(C)C)C(=O)N[C@@H](CCCNC(=N)N)C(=O)N[C@@H](C)C(=O)N[C@@H](CCC(N)=O)C(=O)N[C@@H]([C@@H](C)CC)C(=O)N[C@@H](C)C(=O)N[C@@H]([C@@H](C)CC)C(=O)N1)C(=O)N[C@@H](Cc1c[nH]cn1)C(=O)N[C@@H](C(C)C)C(=O)NCC(=O)N2)[C@@H](C)O)C(=O)O [Tev-Relaxin-B-S29C-FA1] showed an EC50 [3] of 1 nM.

For CCCCCCCCCCCCCC(=O)NCCOCCOCCNC(=O)CSC[C@H](NC(=O)[C@H](Cc1c[nH]c2ccccc12)NC(=O)[C@@H](NC(=O)[C@H](CO)NC(=O)[C@H](CCSC)NC(=O)CNC(=O)[C@@H]1CSSC[C@@H](C(=O)O)NC(=O)[C@H](Cc2ccccc2)NC(=O)[C@H](CCCNC(=N)N)NC(=O)[C@H](C)NC(=O)[C@H](CC(C)C)NC(=O)[C@H](CO)NC(=O)[C@H](CCCNC(=N)N)NC(=O)[C@H](CCCCN)NC(=O)[C@H]([C@@H](C)O)NC(=O)[C@@H]2CSSC[C@H](NC(=O)[C@H](CCCCN)NC(=O)[C@H](CC(N)=O)NC(=O)[C@H](C)NC(=O)[C@H](CC(C)C)NC(=O)[C@H](C)NC(=O)[C@H](CO)NC(=O)[C@H](Cc3ccc(O)cc3)NC(=O)[C@H](CC(C)C)NC(=O)[C@@H](N)CCC(N)=O)C(=O)N[C@@H](CSSC[C@H](NC(=O)[C@H](CC(C)C)NC(=O)[C@H](CCCCN)NC(=O)[C@@H](NC(=O)[C@@H](NC(=O)[C@H](CCC(=O)O)NC(=O)[C@H](CCC(=O)O)NC(=O)[C@H](CCSC)NC(=O)[C@H](Cc3c[nH]c4ccccc34)NC(=O)[C@H](CO)NC(=O)[C@H](C)N)C(C)C)[C@@H](C)CC)C(=O)NCC(=O)N[C@@H](CCCNC(=N)N)C(=O)N[C@@H](CCC(=O)O)C(=O)N[C@@H](CC(C)C)C(=O)N[C@@H](C(C)C)C(=O)N[C@@H](CCCNC(=N)N)C(=O)N[C@@H](C)C(=O)N[C@@H](CCC(N)=O)C(=O)N[C@@H]([C@@H](C)CC)C(=O)N[C@@H](C)C(=O)N[C@@H]([C@@H](C)CC)C(=O)N1)C(=O)N[C@@H](Cc1c[nH]cn1)C(=O)N[C@@H](C(C)C)C(=O)NCC(=O)N2)[C@@H](C)O)C(=O)O [Relaxin-B-D1AS29C-FA1], the half-life [2, 4] was 0.5 h and the half-life [2, 5] was 1.2 h.
